We go through two molecules from PMC6053543 (Nature cell biology, 2016).

T1: recombinant FL-Kank2 (mouse, UniProt Q8BX02 1-843)
T1 sequence (looked up): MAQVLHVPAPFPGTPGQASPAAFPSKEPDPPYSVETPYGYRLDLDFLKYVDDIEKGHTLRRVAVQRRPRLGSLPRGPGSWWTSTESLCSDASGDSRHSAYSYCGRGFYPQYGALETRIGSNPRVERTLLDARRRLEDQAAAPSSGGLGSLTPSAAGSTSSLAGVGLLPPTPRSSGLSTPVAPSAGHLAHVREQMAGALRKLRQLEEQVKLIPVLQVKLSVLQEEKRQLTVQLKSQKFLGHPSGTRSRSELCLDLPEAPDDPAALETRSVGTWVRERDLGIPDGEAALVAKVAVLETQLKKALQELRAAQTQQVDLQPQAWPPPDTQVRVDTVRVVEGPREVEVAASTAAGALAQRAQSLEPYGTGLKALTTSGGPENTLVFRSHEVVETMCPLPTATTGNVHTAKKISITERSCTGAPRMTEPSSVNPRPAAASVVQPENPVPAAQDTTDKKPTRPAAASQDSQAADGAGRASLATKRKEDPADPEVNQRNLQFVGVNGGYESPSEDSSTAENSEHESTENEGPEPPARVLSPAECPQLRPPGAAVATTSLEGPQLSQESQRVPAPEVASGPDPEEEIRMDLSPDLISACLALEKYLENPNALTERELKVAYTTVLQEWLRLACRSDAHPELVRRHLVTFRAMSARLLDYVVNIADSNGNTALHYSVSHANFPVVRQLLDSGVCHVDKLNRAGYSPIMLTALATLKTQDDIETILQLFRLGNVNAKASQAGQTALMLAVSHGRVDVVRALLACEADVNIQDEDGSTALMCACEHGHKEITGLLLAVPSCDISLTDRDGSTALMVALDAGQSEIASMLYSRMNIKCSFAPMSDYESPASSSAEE

B1: Venus-His-Sumo-tagged talin R4–R8 domain (domain or fragment, mouse, UniProt P26039 913-1655, looked up)
chain: LVQRLEHAAKQAAASATQTIAAAQHAASAPKASAGPQPLLVQSCKAVAEQIPLLVQGVRGSQAQPDSPSAQLALIAASQSFLQPGGKMVAAAKASVPTIQDQASAMQLSQCAKNLGTALAELRTAAQKAQEACGPLEMDSALSVVQNLEKDLQEIKAAARDGKLKPLPGETMEKCTQDLGNSTKAVSSAIAKLLGEIAQGNENYAGIAARDVAGGLRSLAQAARGVAALTSDPAVQAIVLDTASDVLDKASSLIEEAKKASGHPGDPESQQRLAQVAKAVTQALNRCVSCLPGQRDVDNALRAVGDASKRLLSDSLPPSTGTFQEAQSRLNEAAAGLNQAATELVQASRGTPQDLARASGRFGQDFSTFLEAGVEMAGQAPSQEDRAQVVSNLKGISMSSSKLLLAAKALSTDPASPNLKSQLAAAARAVTDSINQLITMCTQQAPGQKECDNALRQLETVRELLENPVQPINDMSYFGCLDSVMENSKVLGEAMTGISQNAKNGNLPEFGDAIATASKALCGFTEAAAQAAYLVGVSDPNSQAGQQGLVEPTQFARANQAIQMACQSLGEPGCTQAQVLSAATIVAKHTSALCNSCRLASARTANPTAKRQFVQSAKEVANSTANLVKTIKALDGDFTEENRAQCRAATAPLLEAVDNLSAFASNPEFSSVPAQISPEGRAAMEPIVISAKTMLESAGGLIQTARALAVNPRDPPRWSVLAGHSRTVSDSIKKLITSMRDKA

For experiment [1], the target named is B1. The experiment in a line: pull-down.
Experiment [2] concerns the target T1, recombinant FL-Kank2. The experiment in a line: pull-down.

Turning to DPPYSVETPYGYRLDLDFLKYVDDIEKGHTLRRVAVQRRPRLGS (domain or fragment, mouse, UniProt Q8BX02 29-72, looked up) [GST-tagged Kank2-KN (amino acids 29–72)], the binding result in experiment [1] was “binds”.

Consider B1, for which, in experiment [2], the binding result is reported as “binds”.
